The data set deals with the molecule itself. As to the kind of experiment: mass photometry.

“And” between values parts separate entries of the source, which are not always exact repeats. Identical values can stand only once.

This is an account of results in article doi:10.1101/2025.07.10.664112 (bioRxiv, 2025).

B1: Heterogeneous nuclear ribonucleoprotein A2/B1 (hnRNPA2B1), full length, tag-free (natural protein, human, UniProt P22626 1-353, looked up)
chain: MEKTLETVPLERKKREKEQFRKLFIGGLSFETTEESLRNYYEQWGKLTDCVVMRDPASKRSRGFGFVTFSSMAEVDAAMAARPHSIDGRVVEPKRAVAREESGKPGAHVTVKKLFVGGIKEDTEEHHLRDYFEEYGKIDTIEIITDRQSGKKRGFGFVTFDDHDPVDKIVLQKYHTINGHNAEVRKALSRQEMQEVQSSRSGRGGNFGFGDSRGGGGNFGPGPGSNFRGGSDGYGSGRGFGDGYNGYGGGPGGGNFGGSPGYGGGRGGYGGGGPGYGNQGGGYGGGYDNYGGGNYGSGNYNDFGNYNQQPSNYGPMKSGNFGGSRNMGGPYGGGNYGPGGSGGSGGYGGRSRY
One may read the stoichiometry N as a count of units in the complex or per binding partner. B1: the “stoichiometry N” value was 2 and 4.
